Reference: IntAct's records for PubMed 22705791

B1: Double-strand break repair protein MRE11 (Saccharomyces cerevisiae), P32829 (parent)
chain: MDYPDPDTIRILITTDNHVGYNENDPITGDDSWKTFHEVMMLAKNNNVDMVVQSGDLFHVNKPSKKSLYQVLKTLRLCCMGDKPCELELLSDPSQVFHYDEFTNVNYEDPNFNISIPVFGISGNHDDASGDSLLCPMDILHATGLINHFGKVIESDKIKVVPLLFQKGSTKLALYGLAAVRDERLFRTFKDGGVTFEVPTMREGEWFNLMCVHQNHTGHTNTAFLPEQFLPDFLDMVIWGHEHECIPNLVHNPIKNFDVLQPGSSVATSLCEAEAQPKYVFILDIKYGEAPKMTPIPLETIRTFKMKSISLQDVPHLRPHDKDATSKYLIEQVEEMIRDANEETKQKLADDGEGDMVAELPKPLIRLRVDYSAPSNTQSPIDYQVENPRRFSNRFVGRVANGNNVVQFYKKRSPVTRSKKSGINGTSISDRDVEKLFSESGGELEVQTLVNDLLNKMQLSLLPEVGLNEAVKKFVDKDEKTALKEFISHEISNEVGILSTNEEFLRTDDAEEMKALIKQVKRANSVRPTPPKENDETNFAFNGNGLDSFRSSNREVRTGSPDITQSHVDNESRITHISQAESSKPTSKPKRVRTATKKKIPAFSDSTVISDAENELGDNNDAQDDVDIDENDIIMVSTDEEDASYGLLNGRKTKTKTRPAASTKTASRRGKGRASRTPKTDILGSLLAKKRK
partner: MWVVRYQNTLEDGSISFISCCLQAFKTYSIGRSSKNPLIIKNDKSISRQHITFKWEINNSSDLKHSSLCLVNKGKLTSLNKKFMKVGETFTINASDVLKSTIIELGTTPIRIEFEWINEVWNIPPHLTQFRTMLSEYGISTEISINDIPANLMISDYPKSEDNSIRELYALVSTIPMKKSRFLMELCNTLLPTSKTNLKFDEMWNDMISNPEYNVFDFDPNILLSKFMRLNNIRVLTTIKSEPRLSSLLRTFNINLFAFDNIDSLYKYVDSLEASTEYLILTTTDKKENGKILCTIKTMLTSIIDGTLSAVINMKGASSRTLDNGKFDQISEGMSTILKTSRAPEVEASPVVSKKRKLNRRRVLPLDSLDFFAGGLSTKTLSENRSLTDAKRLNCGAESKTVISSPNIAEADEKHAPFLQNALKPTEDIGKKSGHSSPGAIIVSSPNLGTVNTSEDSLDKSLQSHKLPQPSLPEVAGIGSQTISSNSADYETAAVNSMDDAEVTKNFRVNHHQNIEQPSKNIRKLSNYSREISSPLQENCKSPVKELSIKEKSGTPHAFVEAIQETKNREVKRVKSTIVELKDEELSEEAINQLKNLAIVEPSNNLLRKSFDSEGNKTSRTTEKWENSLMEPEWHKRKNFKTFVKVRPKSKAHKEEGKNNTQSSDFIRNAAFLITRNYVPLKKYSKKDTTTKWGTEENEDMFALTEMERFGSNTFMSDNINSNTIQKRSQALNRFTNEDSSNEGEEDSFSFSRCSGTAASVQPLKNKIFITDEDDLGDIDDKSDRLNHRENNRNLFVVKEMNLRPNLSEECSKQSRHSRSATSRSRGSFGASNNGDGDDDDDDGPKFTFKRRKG

Variants of: B1
Conditions: with xrs2_yeast XRS2, P33301

Row | effect of a mutation on the interaction | Variant
1 | disrupting interaction strength | D109G
2 | disrupting interaction strength | R76K
3 | disrupting interaction strength | R76A
4 | disrupting interaction strength | N113S
